According to patent US6534051:

What was measured:
[1] = molecular target: receptor of ecotropic murine leukemia virus (UniProt Q09143); assay: cell-based or functional assay
[2] = molecular target: cell-surface protein expressed on various human cancers (e.g., HeLa and Col-1 cells), antigen of antibody B6.2 (human); assay: cell-based or functional assay

Sequence of UniProt Q09143 (Q09143 whole entry): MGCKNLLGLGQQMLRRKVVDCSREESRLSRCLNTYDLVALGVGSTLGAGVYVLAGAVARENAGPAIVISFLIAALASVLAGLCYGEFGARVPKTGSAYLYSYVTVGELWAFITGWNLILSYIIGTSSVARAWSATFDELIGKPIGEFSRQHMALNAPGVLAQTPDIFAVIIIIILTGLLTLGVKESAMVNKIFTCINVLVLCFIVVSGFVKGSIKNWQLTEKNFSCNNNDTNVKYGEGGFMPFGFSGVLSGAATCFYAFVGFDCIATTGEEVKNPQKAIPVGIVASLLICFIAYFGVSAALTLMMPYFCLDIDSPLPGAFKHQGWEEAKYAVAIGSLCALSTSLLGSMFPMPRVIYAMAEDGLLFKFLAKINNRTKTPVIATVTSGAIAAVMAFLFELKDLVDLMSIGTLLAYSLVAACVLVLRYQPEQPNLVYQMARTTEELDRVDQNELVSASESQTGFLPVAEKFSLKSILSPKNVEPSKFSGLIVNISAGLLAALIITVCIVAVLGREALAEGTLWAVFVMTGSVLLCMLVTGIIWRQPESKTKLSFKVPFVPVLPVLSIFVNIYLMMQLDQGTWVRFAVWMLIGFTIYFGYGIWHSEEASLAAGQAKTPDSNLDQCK

For “SNV-MLV-chiC targeting envelope: almost complete SU peptide of ecotropic murine leukemia virus fused to carboxy terminal part of the SNV envelope (as in pTC4)”, which Virus titer (cfu/ml) on CHTG cells, particles with MLV-SNV-chiC + wt SNV [1] is on record?
The Virus titer (cfu/ml) on CHTG cells, particles with MLV-SNV-chiC + wt SNV was 1000 cfu/ml.

With “SNV-MLV-chiD targeting envelope: almost complete SU peptide of ecotropic murine leukemia virus fused to carboxy terminal part of the SNV envelope (as in pTC5)” as the substance, how does the Virus titer (cfu/ml) on CHTG cells, particles with MLV-SNV-chiD + wt SNV [1] read?
The Virus titer (cfu/ml) on CHTG cells, particles with MLV-SNV-chiD + wt SNV was 1000 cfu/ml.

“TC24 targeting envelope: B6.2 single chain antibody fused to carboxy terminal part of the SNV envelope (same amount of SNV envelope as pTC4) (scFv)” was tested. Which Titer (CFU/ml) on COL-1, particles with TC24 + wt-env [2] did it give?
The Titer (CFU/ml) on COL-1, particles with TC24 + wt-env was 115 CFU/ml.

And the Titer (CFU/ml) on HeLa, particles with TC24 + wt-env [2]?
The Titer (CFU/ml) on HeLa, particles with TC24 + wt-env was 250 CFU/ml.

What about the Titer (CFU/ml) on HeLa, particles with TC24 alone [2] of the same substance?
The Titer (CFU/ml) on HeLa, particles with TC24 alone was 5 CFU/ml.

How did the Titer (CFU/ml) on COL-1, particles with TC25 + wt-env [2] turn out when “TC25 targeting envelope: B6.2 single chain antibody fused to carboxy terminal part of the SNV envelope (same amount of SNV envelope as pTC5) (scFv)” was run?
The Titer (CFU/ml) on COL-1, particles with TC25 + wt-env was 55 CFU/ml.

What about the Titer (CFU/ml) on HeLa, particles with TC25 + wt-env [2] of the same substance?
The Titer (CFU/ml) on HeLa, particles with TC25 + wt-env was 100 CFU/ml.

What about the Titer (CFU/ml) on HeLa, particles with TC25 alone [2] of the same substance?
The Titer (CFU/ml) on HeLa, particles with TC25 alone was 20 CFU/ml.

Which results are given for “TC26 targeting envelope: B6.2 single chain antibody fused to the SNV envelope at codon 168 (167 in the legend of FIG. 6) (scFv)”?
Titer (CFU/ml) on COL-1, particles with TC26 + wt-env [2]: 45 CFU/ml; Titer (CFU/ml) on HeLa, particles with TC26 + wt-env [2]: 90 CFU/ml; Titer (CFU/ml) on HeLa, particles with TC26 alone [2]: 10 CFU/ml
